Results taken from the DeepSol protein solubility set.

assay: soluble on expression in E. coli; label from the status in PepcDB or PDB records

| Sequence | soluble on expression in E. coli |
| --- | --- |
| MPLEASELKPTAGPLEASELKPTAGPLEASELKPTAGPLEASELKPTAGPLEASELKPTAGPLEASELKPTAGPLEASELKPTAGMKKNSYLLSCLAIAVSSACHAEVLTYPDPLGSSQSDFGGTGLLQMPNARIAPEGEFSVNYRDNDQYRFYSTSVALFPWLEGTIRYTDVRTRKYSQWEDFSGDQSYKDKSFDFKLRLWEEGYWLPQVAFGKRDIAGTGLFDGEYLVASKQAGPFDFTLGMAWGYAGNAGNITNPFCRVSDKYCHRAESHDAGDISFSDIFRGPASIFGGIEYQTPWNPLRLKLEYDGNNYQNDFAGKLPQASHFNVGAVYRAASWADLNLSYERGNTLMFGFTLRTNFNDLRPALRDTPKPAYQPAPESEGLQYTTVANQLTALKYNAGFDAPEIQLRDKTLYMSGQQYKYRDSREAVDRANRILVNNLPQGVEKISVTQKREHMAMVTTETDVASLRKQLAGTAPGQSEPLQQQRVEAEDLSAFGRGYRIREDRFSYSFNPTLSQSLGGPEDFYMFQLGLMSSARYWFTDHLLLDGGIFTNIYNNYDKFKSSLLPADSTLPRVRTHIRDYVRNDVYLNNLQANYFADLGNGFYGQVYGGYLETMYAGVGSELLYRPLDACWALGVDVNYVKQRDWDNMMRFTDYSTPTGFVTAYWNPPTLNGVLMKLSVGQYLAKDKGATIDVAKRFDSGVAVGVWAAISNVSKDDYGEGGFSKGFYISIPFDLMTIGPNRNRAVVSWTPLTRDGGQMLSRKYQLYPMTAEREVPVGQLEHHHHHH | not soluble |
| MPLRHWGMARGSKPVGDGAQPMAAMGGLKVLLHWAGPGGGEPWVTFSESSLTAEEVCIHIAHKVGITPPCFNLFALFDAQAQVWLPPNHILEIPRDASLMLYFRIRFYFRNWHGMNPREPAVYRCGPPGTEASSDQTAQGMQLLDPASFEYLFEQGKHEFVNDVASLWELSTEEEIHHFKNESLGMAFLHLCHLALRHGIPLEEVAKKTSFKDCIPRSFRRHIRQHSALTRLRLRNVFRRFLRDFQPGRLSQQMVMVKYLATLERLAPRFGTERVPVCHLRLLAQAEGEPCYIRDSGVAPTDPGPESAAGPPTHEVLVTGTGGIQWWPVEEEVNKEEGSSGSSGRNPQASLFGKKAKAHKAVGQPADRPREPLWAYFCDFRDITHVVLKEHCVSIHRQDNKCLELSLPSRAAALSFVSLVDGYFRLTADSSHYLCHEVAPPRLVMSIRDGIHGPLLEPFVQAKLRPEDGLYLIHWSTSHPYRLILTVAQRSQAPDGMQSLRLRKFPIEQQDGAFVLEGWGRSFPSVRELGAALQGCLLRAGDDCFSLRRCCLPQPGETSNLIIMRGARASPRTLNLSQLSFHRVDQKEITQLSHLGQGTRTNVYEGRLRVEGSGDPEEGKMDDEDPLVPGRDRGQELRVVLKVLDPSHHDIALAFYETASLMSQVSHTHLAFVHGVCVRGPENIMVTEYVEHGPLDVWLRRERGHVPMAWKMVVAQQLASALSYLENKNLVHGNVCGRNILLARLGLAEGTSPFIKLSDPGVGLGALSREERVERIPWLAPECLPGGANSLSTAMDKWGFGATLLEICFDGEAPLQSRSPSEKEHFYQRQHRLPEPSCPQLATLTSQCLTYEPTQRPSFRTILRDLTRLQPHNLADVLTVNPDSPASDPTVFHKRYLKKIRDLGEGHFGKVSLYCYDPTNDGTGEMVAVKALKADCGPQHRSGWKQEIDILRTLYHEHIIKYKGCCEDQGEKSLQLVMEYVPLGSLRDYLPRHSIGLAQLLLFAQQICEGMAYLHSQHYIHRDLAARNVLLDNDRLVKIGDFGLAKAVPEGHEYYRVREDGDSPVFWYAPECLKEYKFYYASDVWSFGVTLYELLTHCDSSQSPPTKFLELIGIAQGQMTVLRLTELLERGERLPRPDKCPCEVYHLMKNCWETEASFRPTFENLIPILKTVHEKYQGQAPSVFSVC | soluble |
| MPLTLTDRYRGSLLGLACGDALGTSVEFKPRGSFPPVTDLLGGGPFNLKAGQWTDDTSMALCLGESLLRKDGFDPADQMGRYLNWWQWGYLSATGECFDIGMTVRQALADYQEHGQPLAGSSDPQTAGNGSLMRLAPVVLFHYPDLAQVREFAGASSRTTHGAAEAIECCQLLAGLIAKALDGASKQQLQRLDAQGFRESKVAALAQGNYLDKTRDQIRGNGYCVDSLEAALWCFQHSDSYAEAVLAAANLGDDADTTAAIVGQLAGAFYGAQGIPPHWLAKLHMGEEIQAMADDLLAAARRRAPARPLHGSCLCKAVQYRVDRLDMPIGHCHCQTCRKAHAAAFASTAGVMREHFQWTQGQERLSTYESSPGKLRHFCSVCGSHLLAERPGQPHVILRVATLDDDPGQTPQVHIWTSHDVPWLADEALQRWPEWQPSRGLEHHHHHH | not soluble |
| MPLTPADVHNVAFSKPPIGKRGYNEDEVDQFLDLVEDTLAEIQEENDDLRQQIEELQSSPRAEGSKPAAAPAAVSSLDETKLRKEIEAKVAAEYRAKLADAQEATERAQAELKMAREEADSAKAAAKKAEEAARAAASAATKAQPVAAVAPVGTDGGSATADTHLQAAKVLSMAQEMADRLTAEADSNSKSMLSEARAAAEKQVSDAEAKAKTTLADARQKAEKQLADADARSKALVSDAEKKSAQTLSDANTRAEAQVRQAEEKANALQADAERKHTEIMATVKQQQNALESRISELRTFEREYRTRLKTLLQTQLDELESRGTSAPEDKNV | not soluble |
| MPNAGELASLMEENAMPKVVVRNFAISLDGYGAGPDQSLQNPLGVKGEELHQWAFKTRTFHRMFGKEGGSTGTDENFSEKSFENIGAWVLGRNMFGPVRGAWPDESWKGWWGEEPPYHVPVFVLTHHARPSFTMKGGTEFHFVTDGIEAALDRALTAANGKDVRIGGGVSTIRQYMAAGMIDELHLALAPVFLGKGEQLFEGLDLPALGYRCTGTVAGEGATHLIIEKV | not soluble |
| MPNILYKIDNQYPYFTKNEKKIAQFILNYPHKVVNMTSQEIANQLETSSTSIIRLSKKVTPGGFNELKTRLSKFLPKEVTQYNVELVDNESTISLKNKLHSRSKAAL | soluble |
| MPNPPAKEDTWAFGPIGSPFPDNPVKALGQQNMYVALWYKNGRPMHGRAWNNGGVIECSFPYNKSELTGVKDLGGQIQVLQYKGNHLSLGYWYNWIKYSDRFDKMDKGAEMLRCGDSFPILWSERPGGALLGYADNKTEIARFSHDGKVDEVSGSALANMLIIARELKGGPPYCECEECKSEPPKPIVRVTLNEWADFRCGDPWPTVGTPVRALGRSLDTLPGENPDQYVALWYQSGEPVMGRIWNDGGKIAACFGWGGHEYRQKIGSIQILYELPEAIRGFDYDWKPFPEAAQFGAKEWIPVHVDHHKGNISPAVLIVDGKEILGKADIRNERATIGYGGTEKVLVGPAVHSCMVLCRKAKPGCTID | soluble |
| MPNTIRLHRVLSAPPERVYRAFLDPLALAKWLPPEGFVCKVLEHDARVGGAYKMEFLAFASGQKHAFGGRYLELVPGERIRYTDRFDDAGLPGDMITTITLAPLSCGADLSIVQEGIPDAIPPENCYLGWQQSLKQLAALVEPDMPGLEHHHHHH | soluble |
| MPNTLKRLIPDPEVIKLQQLLSSNGYFEEIKPSHGLFDGITFDNAVLFQLQHIYKDGDPLKPDGVIGAKTWWALKNPSGEKQRNHLSASIPAGLTTKRHQLIELIIEEHSKPVFEVPDGSNRSPDIDGYWGNTGVIGLAWCCAFVSWVLKEVTDSYPIASTHHLGVQRMWRTAKRLNMTTEIPKPGDIFVQLFAGGKGHTGFVVAVTEDGETIYTCEGNCGNRLKIGKRSNNSELHFIDCLQDNQTLDFERMAFDVNSTIDNTTRLEHHHHHH | not soluble |
| MPPCPPQQNRNRLSQLPVGELGEMELTWQEIMSITELQGLNVPSETSFEPQAPTPYPGPLPPPTYCPCSIHPDAGFSLPPPSYELPASTPHVPELPYSYGNVAIPVSKPLTLSGLLNEPLPDHLALLDIGLPVGQPKPQEDPESDSGLSLNYSDAESLELEGMEAGRRRSEYADMYPVEYPYSLMPNSLAHPNYTLPPTETPLALESSSGPVRAKPAVRGEAGSRDERRALAMKIPFPTDKIVNLPVDDFNELLAQYPLTESQLALVRDIRRRGKNKVAAQNCRKRKLETIVQLERELERLSSERERLLRARGEADRTLEVMRQQLAELYHDIFQHLRDESGNSYSPEEYVLQQAADGAIFLVPRGTKMEATD | soluble |
| MPPKIAEVIQHDVCAACGACEAVCPIGAVTVKKAAEIRDPNDLSLYEKGAAFQVCEGCLTCSRICPVVDGFIENELLNVRKFFGAKSKDNAGSQDGGVTSGILKALFNKGEIDCAVGITRNENWEPEVVLLTSAEDVERTRGTKYTSDPVVAALREAFEKYDRIAVVGVPCQAHAARLIRENVNEKIVLIIGLLCMESFHHDVMLDKIIPEIMKVNVRDIVKMEFTKGKFWVYTKDGEVHSVPIKDIAKYARNPCHHCCDYTSVFADISVGSVGAPDGWNSVFIRTEIGEKYFDMVRDEMEIMEDPKPGLELVGKLIEMKRKGNAEHFQEVCKEFSFETGIRSETVLEHHHHHH | soluble |
| MPPRRDLKKILIIGSGPITIGQAAEFDYSGTQAVKALRGAGYRVVLVNSNPATIMTDPELAERTYIEPLDLEHLEGILAREAPDALLPTLGGQTGLNLAMALHEEGILQKYGVELIGAKAEAIRKGEDREAFQEAMQRIGLEVPRGQLVGSVEEGLHFAREVGFPVVVRPSFTLGGTGGGIAHDEAELVEVLSRGLTLSPVHTALVEESVLGWKEFELEVMRDHADTVVIITSIENVDPMGVHTGDSITVAPAQTLSDVEYQRMRDAAKAIIREIGVETGGSNIQFAVDPKTGRQVVIEMNPRVSRSSALASKATGFPIAKIAALLAVGYRLDELPNDITRKTPASFEPTIDYVVVKIPRFAFEKFRPLRNTLGELKDELTTQMKSVGEVMAIGRTFKEALMKALRGLERDVRALAGVRTEELEKKLYPNPDRVYAVMELLRRGMPVEELYQATRIDPWFLHQMKEVVEAEEWLKTHPPKDREDWRFYKGLGLTDRRIGELVGKGEKEVRAERKALGVVPVYKTVDTCAAEFEAYTPYHYSTYELEDEVWPSQKPKVVILGSGPIRIGQGVEFDYATVHAVWALKEAGYETIMVNSNPETVSTDYDTADRLYFEPLTLEDVLNIVEHEKPIGVIATLGGQTPLKLAKGLEEAGVRLLGTPFSAIHQAEDREAFHALCQRLGIPQPEGRVAQSPEEALRLAPEVGFPLLVRPSYVLGGRAMQVVRDEGELKRYLEEVYAPLEERPSILLDRFLEGAVELDVDALSDGQEVMVAGIMEHVERAGVHSGDSATLLPPVHVPEEALKKVRDYTRRLALALGVRGLLNVQYAVVGEEVYVLEANPRASRTVPFVSKAIGVPLAKLAALIAVGKTLKELGVRDLDPVPPYYAAKEVVIPWIKFPGVIPELGPEMRSTGESMGIDQDPYLAYYKAELGAGQRLPLSGRVRFIGEGLEDLKALYQEAGFALTEGEDYDLLISLVPDPELRRAVERGLPFITTREGAWWSLKAILRARESGLRVQSLQDWHQKAPRG | soluble |
| MPQGRGDGGVRMAAISLTKVRETAPALVDLYKTAGVSLTKHGMAGTRAAVYLVVDYSGSMKPYYKDGSVQALADRVLSLSAHLDDDGIVPVVFFSTDVDAVTEIALADHQGRIERIVAGLGHMGKTSYHLAMDAVIDHYLDSGARHPALVVFQTDGGPINRLAAERYLCKAAPLPLFWQFVGFGDPDSRQFEYLRKLDELAVPGKRVIDNAGFFHAGRDPRKVTDAELYDRLVGEFPQWLAAARAQGIARPSLEHHHHHH | not soluble |
| MPQGSALSDTERAQLDVMKLLNVSLHEMSRKISRSRHCIRVYLKDPVSYGTSKRAPRRKALSVRDERNVIRAASNSCKTARDIRNELQLSASKRTILNVIKRSGVIVRQKLRPAPLLSADHKLKRLEFAKNNMGTNWSKVVFSDEKKFNLDGPDGCRYYWRDLRKEPMVFSRRNFGGGTVMVWGAFTEKKKLEIQFVSSKMNSTDYQNVLELELSKYLRHYSGKDFRFQQDNATIHVSNSTRDYFKLKKINLLDWPARSPDLNPIENLWGILVRIVYAQNKTYPTVASLKQGILDAWKSIPDNQLKSLVRSMEDRLFEIIRTQGNPINY | not soluble |
| MPQPAARVTDMHVCPMVTPGLPPVPHVGGPLLPPGSPSVFIGGLPAATLGTLALCSGPVDVVIMGSVKVLICGKPAARMGDICAHGGTIVSGYPQVLIG | not soluble |
